Laboratory results from patent US20220064335A1 (CRISPR THERAPEUTICS, published 2022).

Columns and labels:
[1] = molecular target: T1, anti-CD19 CAR (SEQ ID NO: 8) on CAR T cells; assay: flow cytometry, % CAR positive cells against antibody dilution on anti-CD19 CAR T cells
T1 construct: also called anti-CD19 CAR T cells
Procedure: (§1) The purified 15C04-02F03 antibody was analyzed by flow cytometry for binding to CAR T cells expressing the anti-BCMA CAR of SEQ ID NO: 6 (anti-BCMA CAR T cells). CAR T cells expressing an anti-CD70 CAR of SEQ ID NO: 7 (anti-CD70 CAR T cells) or an anti-CD19 CAR SEQ ID NO: 8 (anti-CD19 CAR T cells) were used as negative controls. Anti-BCMA-scFv antibody (15C04-02F03) was analyzed at various dilutions (FIG. 2).

[2] = molecular target: T2, anti-CD70 CAR (SEQ ID NO: 7) on CAR T cells; assay: flow cytometry, % CAR positive cells against antibody dilution on anti-CD70 CAR T cells
T2 construct: also called anti-CD70 CAR T cells
T2 sequence (chain, as listed by the source limits assumed): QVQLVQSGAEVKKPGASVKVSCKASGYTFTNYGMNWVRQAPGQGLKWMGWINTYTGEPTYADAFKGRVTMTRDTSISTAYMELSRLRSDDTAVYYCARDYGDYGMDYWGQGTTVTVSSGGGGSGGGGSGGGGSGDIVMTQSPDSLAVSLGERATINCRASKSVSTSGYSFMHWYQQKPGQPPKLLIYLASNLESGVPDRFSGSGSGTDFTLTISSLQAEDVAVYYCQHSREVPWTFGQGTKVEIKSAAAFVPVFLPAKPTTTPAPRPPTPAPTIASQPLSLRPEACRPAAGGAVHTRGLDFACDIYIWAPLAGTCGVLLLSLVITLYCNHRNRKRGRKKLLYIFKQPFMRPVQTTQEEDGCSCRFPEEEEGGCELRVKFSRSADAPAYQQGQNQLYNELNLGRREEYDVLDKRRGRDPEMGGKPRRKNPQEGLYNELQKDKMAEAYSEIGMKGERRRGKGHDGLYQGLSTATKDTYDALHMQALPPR
Procedure: as §1

B1: mouse anti-BCMA-scFv monoclonal antibody 15C04-02F03 (antibody, mouse IgG1, kappa, V domains shown)
VH: QVQLQQPGAELVKPGTSVKLSCKASAYTFTNYWIHWVKQRPGQGLEWIGRIDPNSGDTKYNEKFKSKASLTVDKPSSTANMQLSSLTSEDSAVYYCTRWGDLHYYAMDYWGQGTSVTVSS
VL: DIVLTQSPASLAVSLGQRATISCQASESVSFTGTSLMHWYQQKPGQPPKLLIYRASNLDSGVPARFSGSGSESDFTLTIDPVEEDDAAVYYCMQSMEDPYTFGGGTKLEIKR
notes: also called Native 15C04-02F03; anti-BCMA-scFv-AJ-1.3-15C04-02F03
[1]
  binding result: no binding
[2]
  binding result: no binding
